Data as given in the supplement of paper PMC7125110.
± gives the standard error. For some assays here: This sample holds only a part of the variants without activity.

B1: glmS ribozyme (parent)
chain: AUAAAAGCGCCAGAACUACAGAAAUGUAGUUGACGAGGAGGAGGUUUAUCGAAUUUUCGGCGGAUGCCUCCAAA

What was measured:
Conditions in all cases: with glucosamine-6-phosphate
glucosamine-6-phosphate [1] = variants of: B1; assay: kcat; higher = faster cleavage; RNA array
Outline: (§1)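 Glucosamine-6-phosphate, from 40 μM to 10 mM in HEPES/KCl/Mg(OAc)2 buffer, was flowed over sequenced MiSeq chips carrying barcoded ribozyme variants transcribed in situ by E. coli RNA polymerase. A hybridised Cy3 probe tracked the variants at 37 °C as tiles were imaged over ~14 h. kobs, kcat and KM were obtained by fitting normalised per-tile medians to exponential decays and then applying weighted Michaelis–Menten fits across concentrations.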

glucosamine-6-phosphate [2] = variants of: B1; assay: self-cleavage kobs at 640 uM GlcN6P; higher = faster cleavage; RNA array
Outline: as §1

glucosamine-6-phosphate [3] = variants of: B1; assay: self-cleavage kobs at 2500 uM GlcN6P; higher = faster cleavage; RNA array
Outline: as §1

glucosamine-6-phosphate [4] = variants of: B1; assay: KM; higher = weaker cofactor use; RNA array
Outline: as §1

glucosamine-6-phosphate [5] = variants of: B1; assay: self-cleavage kobs at 10000 uM GlcN6P; higher = faster cleavage; RNA array
Outline: as §1

glucosamine-6-phosphate [6] = variants of: B1; assay: self-cleavage kobs at 40 uM GlcN6P; higher = faster cleavage; RNA array
Outline: as §1

glucosamine-6-phosphate [7] = variants of: B1; assay: self-cleavage kobs at 160 uM GlcN6P; higher = faster cleavage; RNA array
Outline: as §1

Variant | kcat (glucosamine-6-phosphate [1]) [s⁻¹] | self-cleavage kobs at 640 uM GlcN6P (glucosamine-6-phosphate [2]) [s⁻¹] | self-cleavage kobs at 2500 uM GlcN6P (glucosamine-6-phosphate [3]) [s⁻¹] | KM (glucosamine-6-phosphate [4]) [µM] | self-cleavage kobs at 10000 uM GlcN6P (glucosamine-6-phosphate [5]) [s⁻¹] | self-cleavage kobs at 40 uM GlcN6P (glucosamine-6-phosphate [6]) [s⁻¹] | self-cleavage kobs at 160 uM GlcN6P (glucosamine-6-phosphate [7]) [s⁻¹]
C34G C67U | < 1e-05 | < 1e-05 |  |  |  |  | 
C8A C61U G66A | < 1e-05 | < 1e-05 | < 1e-05 |  |  |  | 
G13U C71A | 0.000178 ± 1.7e-05 | 5.95e-05 ± 1.2e-05 | 0.000151 ± 2.5e-05 | 1130 ± 300 | 0.000154 ± 1.8e-05 |  | 
U49G G66A | 0.000689 ± 0.00024 | 5.55e-05 ± 1.3e-05 | 0.00024 ± 3.6e-05 | 6210 ± 3000 | 0.000375 ± 9.3e-05 |  | 
U55C C58G | 0.000215 ± 1.3e-05 |  | 3.85e-05 ± 1.1e-05 |  | 9.91e-05 ± 1.2e-05 |  | 
A53G A64G | 0.0648 ± 0.023 | 0.0149 ± 0.0022 | 0.0373 ± 0.01 | 2430 ± 1000 | 0.0493 ± 0.012 | 0.00117 ± 0.00012 | 0.00264 ± 0.00067
G35C C58U | < 1e-05 | < 1e-05 |  |  |  |  | < 1e-05
C34U U54C C68G | 1.64e-05 ± 4.9e-06 |  |  |  |  |  | 
C16A U46G | 0.000285 ± 5.2e-05 | 7.33e-05 ± 1.3e-05 | 0.000212 ± 3e-05 | 1720 ± 670 | 0.000222 ± 3.3e-05 |  | 
A12U U56A U65G | 0.00677 ± 0.0022 | 0.000445 ± 0.00012 | 0.00177 ± 0.00048 | 6820 ± 3000 | 0.00413 ± 0.00071 | 6.29e-05 ± 2e-05 | 0.00018 ± 4e-05
C11U G29A | 0.000628 ± 0.00013 | 9.17e-05 ± 1.1e-05 | 0.000194 ± 3e-05 | 4190 ± 1400 | 0.000474 ± 5.6e-05 |  | 
G29U U49A | < 1e-05 |  |  |  | < 1e-05 | < 1e-05 | < 1e-05
A52G C70A | 6.21e-05 ± 4e-06 | 5.8e-05 ± 6.8e-06 | 6.59e-05 ± 6.1e-06 |  | 5.24e-05 ± 7.9e-06 | 2.42e-05 ± 1.2e-05 | 4.3e-05 ± 1.3e-05
A6U C16U | 0.000238 ± 2.8e-05 | 6.36e-05 ± 7.9e-06 | 0.000118 ± 1.2e-05 | 1970 ± 520 | 0.00021 ± 1.7e-05 |  | 2.54e-05 ± 9.5e-06
U31C U55C | 0.00793 ± 0.00044 | 0.00116 ± 0.00021 | 0.00284 ± 0.00079 | 3750 ± 300 | 0.00585 ± 0.00073 | 8.92e-05 ± 2.1e-05 | 0.000317 ± 6.4e-05
A15U U45A | 0.0179 ± 0.0054 | 0.00219 ± 0.00059 | 0.00648 ± 0.0023 | 3230 ± 1300 | 0.0145 ± 0.0023 | 0.000298 ± 4.7e-05 | 0.000772 ± 0.00017

Variant | kcat (glucosamine-6-phosphate [1]) [s⁻¹] | self-cleavage kobs at 640 uM GlcN6P (glucosamine-6-phosphate [2]) [s⁻¹] | self-cleavage kobs at 2500 uM GlcN6P (glucosamine-6-phosphate [3]) [s⁻¹] | KM (glucosamine-6-phosphate [4]) [µM] | self-cleavage kobs at 10000 uM GlcN6P (glucosamine-6-phosphate [5]) [s⁻¹] | self-cleavage kobs at 40 uM GlcN6P (glucosamine-6-phosphate [6]) [s⁻¹] | self-cleavage kobs at 160 uM GlcN6P (glucosamine-6-phosphate [7]) [s⁻¹]
C50G C67U | 0.000113 ± 9.9e-06 | 0.000141 ± 1.7e-05 | 0.000126 ± 1.5e-05 |  | 0.000101 ± 7.4e-06 | 9.57e-05 ± 8e-06 | 0.000129 ± 1.6e-05
C11G C50G | 0.000265 ± 6.8e-05 | 0.000352 ± 7.5e-05 | 0.000209 ± 5e-05 |  | 0.000187 ± 9.3e-05 | 6.35e-05 ± 1.4e-05 | 0.00024 ± 4.8e-05
G41A C70G | 0.000368 ± 0.00014 | 0.000156 ± 1.6e-05 | 0.000332 ± 4e-05 |  |  | 4.43e-05 ± 8e-06 | 6.45e-05 ± 1.1e-05
G40U U45G | 0.0012 ± 0.00018 | 0.000582 ± 8.9e-05 | 0.000779 ± 0.00017 | 724 ± 190 | 0.00134 ± 0.00027 | 7.67e-05 ± 2e-05 | 0.000202 ± 3.6e-05
G32A G41U | 0.000608 ± 0.00022 | 5.48e-05 ± 9e-06 | 0.000125 ± 2e-05 |  | 0.00037 ± 5.5e-05 |  | 
U45A U49G | 0.00163 ± 0.00032 | 0.000385 ± 5.1e-05 | 0.0012 ± 0.00012 | 1560 ± 570 | 0.00132 ± 0.00015 | 5.25e-05 ± 1e-05 | 0.000194 ± 4.9e-05
U47G U49A | 1.31e-05 ± 3.3e-06 |  |  |  |  |  | 
G62C C70G C71A | 3.99e-05 ± 1.8e-05 | 6.26e-05 ± 2.7e-05 | 5.21e-05 ± 2.2e-05 |  |  |  | 
U55G G66U | 0.00299 ± 0.00092 | 0.00054 ± 0.0001 | 0.00126 ± 0.00021 | 4240 ± 1800 | 0.00195 ± 0.00034 | 4.47e-05 ± 1.7e-05 | 8.99e-05 ± 1.6e-05
G37C C71A | 1.96e-05 ± 6.3e-06 |  |  |  |  |  | 
C71G | 0.0034 ± 0.00063 | 0.000926 ± 4.6e-05 | 0.00218 ± 0.00013 | 1460 ± 470 | 0.00313 ± 0.00019 | 0.000157 ± 1.8e-05 | 0.00041 ± 3.6e-05
C10G G51U C68U C70U | < 1e-05 |  |  |  |  |  | 
A15U C50U | 2.32e-05 ± 2.6e-06 |  |  |  |  |  | 
C16G C71U | 0.00252 ± 0.00053 | 0.000865 ± 0.00012 | 0.00228 ± 0.00066 | 956 ± 300 | 0.00248 ± 0.00036 | 0.000132 ± 1.8e-05 | 0.000323 ± 5.6e-05
U30G A36G C71G | 1.69e-05 ± 3.9e-06 |  | < 1e-05 |  | < 1e-05 | < 1e-05 | 
